Laboratory results published in patent US20110182903A1, “NOVEL SOLUBLE CD83 POLYPEPTIDES, FORMULATIONS AND METHODS OF USE” (priority 2008, published 2011).
Positions count from the first letter of the chain named. Names may count otherwise. Like-named read-outs stand apart in the source and are kept apart here.

Legend:
[1] = target: the molecule itself; assay: non-reducing SDS-PAGE; self-association through disulfide bonds
[2] = target: the molecule itself; assay: size-exclusion chromatography and non-reduced SDS-PAGE with NEM; self-association
[3] = tested on: heterotopic cardiac allograft; assay: C57BL/6-to-BALB/c mouse heart transplant model (murine heterotopic cardiac allograft); format: in vivo; settings: for extension of allograft survival compared to untreated controls / mean survival time of graft: monotherapy; for mean survival time of graft: 100 ug per mouse per day for 8 days, untreated mean 8 days
Experimental: Animal model: C57BL/6-to-BALB/c Mouse Heart Transplant Model
Male adult C57BL/6 (H-2b) were used as donors and BALB/c (H-2d) mice were used as recipients (Jackson Laboratories, Bar Harbor, Mass.). Intra-abdominal heterotopic cardiac transplantation was performed as previously described (Corry et al. (1973) Transplantation 16(4):343-350 and Wang et al. (2007) J Immunol 179(7):4451-4463). In this study, transplant surgery involved transfer of fully MHC-mismatched hearts from C57BL/6 donors to BALB/c recipients, such that the autologous heart as well as the allogenic heart was present in the recipient.
Cardiac transplant recipients were treated as follows: Group I (five recipients) received no treatment. Group 2 (3 recipients) received hCD83ext-m3 monotherapy by i.v. at 100 μg/mouse/day, from −1 to +7 POD. […] Cardiac transplant survival was measured in the number of postoperative days (POD) that the allogenic heart continued to beat.
Cardiac transplant recipients were treated as follows: Group 4 (4 recipients) received hCD83ext-wt (SEQ ID NO:5) monotherapy by i.v. at 100 μg/mouse/day, from the day prior to transplantation until graft rejection.

[4] = Storage stability of purified protein, reduced and non-reduced SDS-PAGE; format: physicochemical
Experimental: The purified wild type hCD83ext, when prepared as described in Example 1 and formulated either in the presence or absence of 50% glycerol, degraded when stored at 4° C., perhaps due to an intrinsic instability of this biomolecule. […] Generally, the dimer composition increased monotonically with the sample age, indicating the progressive conversion of monomer to dimer under this storage condition. Note that there were at least two different monomer forms (lane 6, FIG. 6) and three different dimer forms (lanes 3 and 7, FIG. 6) derived from various sample preps.

[5] = Dimerization by size-exclusion chromatography and non-reduced SDS-PAGE with NEM pretreatment; format: physicochemical; settings: SEC and non-reduced SDS-PAGE with NEM; FIGS. 20, 21
Description: Using exactly the same fermentation and downstream processing protocols as those for wild-type hCD83ext and CD83m-5, CD83m-3 was produced and purified. […] Purified CD83m-3 was subjected to structural characterization using SDS-PAGE (FIG. 15), CD (FIGS. 16 and 17), and spectrofluometry (FIG. 18) with results similar to wild-type hCD83ext and CD83m-5. Note that a clear and reproducible doublet was observed on non-reduced SDS-PAGE (FIG. 15). Also, note that none of these two bands corresponding to the CD83m-3 doublet appeared to have an identical mobility to the monomer species of CD83m-5, but the upper CD83m-3 band appeared to have an identical mobility to the monomer species of the wild-type hCD83ext (FIG. 19). To avoid potential disulfide bond scrambling during the sample preparation for non-reduced SDS-PAGE, the protocol was modified by pretreatment of the sample with N-Ethylmaleimide (NEM). NEM alkylates free thiol groups on cysteine residues that have not formed disulfide bonds, and thereby prevents subsequent disulfide bonding by that cysteine residue. It appears that the modified protocol using NEM provides a more reliable and consistent method for quantification of CD83 dimers by preventing any potential disulfide bond scrambling and the CD83 monomer is observed as a single band, rather than as a doublet (FIG. 20). […]

[6] = tested on: TNFα production by LPS/IFN-γ stimulated peripheral blood mononuclear cells (PBMCs)
Experimental: The ability of the wild type and mutant hCD38ext to inhibit TNFα production by LPS/IFN-γ stimulated peripheral blood mononuclear cells (PBMCs) was evaluated in an in vitro assay using PBMCs from cynomologus monkeys. Specifically, cynomologus PBMCs were isolated and pretreated 12 hours with different concentrations (0.5, 5, 25 and 100 μg/ml) of hCD83ext wild type (formulated at pH 4.5 or 5.5), hCD83ext-m3 or hCD83ext-m5 (501-1). hCD83ext-m3 and hCD83ext-m5 were formulated at pH 5.5 or 7.6, respectively. The cells were then activated for 6 hours with LPS (1 μg/ml) plus IFN-γ (100 U/ml) in the presence of Brefeldin A (4 μg/ml) and then intracellularly stained for TNFα using a commercially available Fix/Perm kit. Flow cytometry acquisition and analysis of the amount of TNFα production was evaluated using either myeloid dendritic cells or monocytes. The results are expressed as % of mDC or monocytes producing TNFα and in Mean Fluorescence Units (MFU), which represents the levels of TNFα on a per cell basis.
hCD83ext wild type protein originally formulated at pH 7.6 (data shown FIGS. 26 and 27) was buffer exchanged into a buffer with a pH of 4.5 or 5.5 and re-tested as described above for the ability to inhibit TNFα production by LPS/IFN-γ stimulated cynomologus PBMCs in vitro.

[7] = tested on: TNFα production by LPS/IFN-γ stimulated human PBMCs; assay: Inhibition of TNFα production by LPS/IFN-γ stimulated human PBMCs; format: cell-based; settings: FIG. 30; four m3 preparations (pH 4.5, 5.5, 7.6) vs wild type ARG-021 in PBS pH 7.6
Description: The improved stability/activity of hCD83ext-m3 as compared to hCD83ext wild type was confirmed in a similar assay using human PBMCs.

[8] = tested on: kidney allografts from C57BL/6 mouse donors; assay: Mouse orthotopic kidney transplant model; format: in vivo; settings: monotherapy 100 μg/mouse/day i.v., day -1, day 0 and seven POD; untreated MST 31±4.9 days
Experimental: The mouse orthotopic kidney transplant model (see Zhang et al. (2005) Microsurgery 16(2):103-109) was used to assess the ability of hCD83ext-m3 to induce allograft tolerance. BALB/c mice received kidney allografts from C57BL/6 mouse donors. Recipient mice were either untreated (two mice) or received hCD83ext-m3 (3 mice; 100 μg/mouse/day, i.v.) one day prior to transplantation (day −1), the day of transplantation (day 0) and for seven days post operative days (POD). The two untreated mice survived for 28 and 35 days, giving a mean survival time (MST) of 31±4.9 days. The three mice treated with hCD83ext-m3 each survived for more than 100 POD. Accordingly, monotherapy with hCD83ext-m3 leads to long-term allograft acceptance in the mouse orthotopic kidney transplant model.

rat renal allografts = assay: Rat renal transplant model of chronic rejection (F344 to Lewis); format: in vivo; settings: POD 140; with CsA, compared to CsA alone; FIG. 37
Experimental: F344 rats served as renal donors to Lewis rats. […] Transplant recipients were sacrificed on POD 140 and transplanted kidneys were assessed for indications of chronic rejection by histology and immunohistochemistry. Renal histology was scored by an independent pathologist assessing tubular atrophy, glomerular atrophy, interstitial fibrosis, intimal thickness, cell infiltrates and cortical scarring on a scale of 0-4, wherein 0=normal, 1=minimal change, 2=mild change, 3=moderate change and 4=marked change.

[9] = FIG. 26, 0.5, 5, 25 and 100 μg/ml, wild type at pH 4.5 or 5.5, m3 at pH 5.5, m5 at pH 7.6

B1: wild type hCD83ext (human CD83 extracellular domain with N-terminal Gly-Ser-Pro-Gly and C-terminal Ile, purified from E. coli) (receptor)
chain: GSPGTPEVKVACSEDVDLPCTAPWDPQVPYTVSWVKLLEGGEERMETPQEDHLRGQHYHQKGQNGSFDAPNERPYSLKIRNTTSCNSGTYRCTLQDPDGQRNLSGKVILRVTGCPAQRKEETFKKYRAE
notes: It carries four extra N-terminal residues and the first transmembrane residue (Ile); Not glycosylated (made in E. coli); Preparations hold monomer and disulfide-linked dimers and multimers; also called hCD83ext-wt; hCD83ext wild type
B1: binds [1].

B2: hCD83ext-m5 (hCD83ext with the fifth cysteine, position 114 of SEQ ID NO:5, mutated to serine) (receptor)
chain: B1 chain with C114S
notes: also called CD83m-5; hCD83m-5
B2: binds [2].

B3: hCD83ext-wt: recombinant human sCD83 (CD83 extracellular domain) purified from E. coli, wild type form, SEQ ID NO:5 (protein)
chain: GSPGTPEVKVACSEDVDLPCTAPWDPQVPYTVSWVKLLEGGEERMETPQEDHLRGQHYHQKGQNGSFDAPNERPYSLKIRNTTSCNSGTYRCTLQDPDGQRNLSGKVILRVTGCPAQRKEETFKKYRAEI
modifications: Synthetic extracellular domain of human CD83 with the addition of Gly-Ser-Pro-Gly at the N-terminus and Ile at the C-terminus
For B3, the “MST ± SD” value ([3]; Table 8, hCD83ext-wt 100 μg/mouse/day i.v., CsA 15 mg/kg/day s.c.) was 15.8 ± 1.0 days, the mean survival ([3]; in combination with cyclosporine, glycerol omitted) was “approximately 14 days” and the long-term graft survival ([3]; in combination with cyclosporine, stored in 50% glycerol, final glycerol concentration 8%) was > 100 days. The “extension of allograft survival compared to untreated controls” value [3] was “approximately 2 fold”, the “mean survival time of graft” value [3] was “approximately 14 days” and the degradation on storage ([4]; stored at 4° C., with or without 50% glycerol) was “degraded”. For the same molecule, the degradation on storage ([4]; stored at -20° C.) was “completely prevented degradation” and the “dimerization on long-term storage” value ([4]; stored at -20° C., frozen) was “dimerization could still occur”.

B4: hCD83ext-m5: soluble CD83 mutant, fifth cysteine of SEQ ID NO:5 mutated to serine, SEQ ID NO:6 (WO2004/046182) (protein)
chain: B3 chain with C114S
modifications: Synthetic extracellular domain of human CD83 with the addition of Gly-Ser-Pro-Gly and the N-terminus and Ile at the C-terminus, with Cys to Ser (C2S) mutation at position 114
With B4 the “mean survival time of graft” value [3] was “approximately 14 days”, the dimerization [5] was “significant” and the “ability to inhibit TNFα production (relative activity)” value [6, 9] was “more active than the wild type hCD93ext”. The “ability to inhibit TNFα production (relative activity)” value ([6]; FIG. 27, proteins formulated at pH 7.6) was “outperformed two preparations of hCD83ext wild type”.

B5: hCD83ext-m3: m3 mutant form of human sCD83; SEQ ID NO:7 with Cys at 12, 20, 92, 114 and Ser at 85 (protein)
chain: B3 chain with C12X, C20X, C85X, C92X, C114X
modifications: Synthetic extracellular domain of human CD83 with the addition of Gly-Ser-Pro-Gly and the N-terminus and Ile at the C-terminus
With B5 the “ability to inhibit TNFα production (relative activity)” value [7] was “outperformed hCD83ext wild type”, the “synergy with CsA and operational tolerance” value ([3]; 3 doses on days -1 to +1 plus CsA, CsA withdrawn at day 50, data not shown) was “full synergy with CsA, but incomplete operational tolerance” and the “MST ± SD” value ([3]; Table 7, hCD83ext-m3 100 μg/mouse/day i.v. -1 to +7 POD, CsA 15 mg/kg/day s.c. daily) was 13.7 ± 0.6 days. For the same molecule, the “allograft tolerance after CsA withdrawal” value ([3]; combination therapy with CsA, CsA withdrawn at day 28, data not shown) was “does not lead to permanent allograft tolerance”, the “extension of allograft survival compared to untreated controls” value [3] was “approximately 2 fold” and the “mean survival time of graft” value [3] was “approximately 14 days”. The “allograft tolerance after cessation of daily CsA therapy” value ([3]; plus CsA until POD 50, hCD83ext-m3 100 μg i.v. days -1 to +7, data not shown) was “complete allograft tolerance”, the “survival of kidney allograft recipients” value [8] was “more than 100 POD” and the “immunohistochemistry grading in renal allografts (IgG, IgM deposits; CD2, CD4, ED-1 infiltration)” value (rat renal allografts) was “significantly (p<0.05) improves immunohistochemistry grading”. For the same molecule, the dimerization [5] was “absent or minimal” and the “ability to inhibit TNFα production (relative activity)” value [6, 9] was “more active than the m5 mutant”.
